We go through 2 substances from patent US20240360208A1.

In assay [1] the target is monomeric Fcγ receptor FcγRIIIa (human) (UniProt P08637). Put plainly: SPR T200, Protein L capture, FcγR at 5 µg/ml, 25 C, pH 7.4.
The target of assay [2] is monomeric Fcγ receptor FcγRIIa (human) (UniProt P12318). The assay is described as above.
In assay [3] the target is monomeric Fcγ receptor FcγRIIb (human) (UniProt P31994). The description is as above.
Assay [4] concerns the target biotinylated human single chain FcRn (human) (UniProt P55899). Put plainly: SPR Biacore 8K, sc huFcRn on SA chip, 50 nM antibody, 25 C, pH 5.
For assay [5] the target is unchanged. Put plainly: SPR Biacore 8K, sc huFcRn on SA chip, 50 nM antibody, 25 C, pH 6.
For assay [6] the target is unchanged. Put plainly: SPR Biacore 8K, sc huFcRn on SA chip, 50 nM antibody, 25 C, pH 7.4.
Assay [7] has as its target human CCL2 (MCP1) - wild type (wt) (human) (UniProt P13500). In words: cell-based or functional assay.

Chain of biotinylated human single chain FcRn (human) (P55899 24-297 limits assumed, chain 1 of 2): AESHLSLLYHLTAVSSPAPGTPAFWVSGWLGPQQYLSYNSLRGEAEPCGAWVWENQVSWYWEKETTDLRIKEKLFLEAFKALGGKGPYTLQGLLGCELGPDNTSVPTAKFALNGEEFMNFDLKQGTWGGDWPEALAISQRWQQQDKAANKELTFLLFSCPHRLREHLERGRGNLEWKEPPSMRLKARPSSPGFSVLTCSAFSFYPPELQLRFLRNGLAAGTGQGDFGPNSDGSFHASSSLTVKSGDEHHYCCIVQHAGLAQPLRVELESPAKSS
Chain of biotinylated human single chain FcRn (human) (chain, as listed by the source limits assumed, chain 2 of 2): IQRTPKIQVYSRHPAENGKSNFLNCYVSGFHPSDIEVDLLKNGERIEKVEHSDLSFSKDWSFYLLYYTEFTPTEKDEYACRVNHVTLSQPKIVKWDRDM
Chain of monomeric Fcγ receptor FcγRIIIa (human) (P08637 17-208 limits assumed): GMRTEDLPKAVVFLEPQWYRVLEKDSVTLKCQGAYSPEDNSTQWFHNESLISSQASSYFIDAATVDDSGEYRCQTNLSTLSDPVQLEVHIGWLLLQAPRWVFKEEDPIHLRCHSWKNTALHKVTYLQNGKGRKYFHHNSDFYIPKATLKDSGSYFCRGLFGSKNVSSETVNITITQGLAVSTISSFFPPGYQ
Chain of monomeric Fcγ receptor FcγRIIa (human) (P12318 34-217 limits assumed): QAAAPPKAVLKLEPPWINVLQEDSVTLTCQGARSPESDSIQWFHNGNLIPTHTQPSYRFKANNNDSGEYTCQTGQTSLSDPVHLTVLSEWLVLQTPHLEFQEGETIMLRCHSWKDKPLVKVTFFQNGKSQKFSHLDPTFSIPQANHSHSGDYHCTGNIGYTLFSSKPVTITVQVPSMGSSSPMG
Chain of monomeric Fcγ receptor FcγRIIb (human) (P31994 43-217 limits assumed): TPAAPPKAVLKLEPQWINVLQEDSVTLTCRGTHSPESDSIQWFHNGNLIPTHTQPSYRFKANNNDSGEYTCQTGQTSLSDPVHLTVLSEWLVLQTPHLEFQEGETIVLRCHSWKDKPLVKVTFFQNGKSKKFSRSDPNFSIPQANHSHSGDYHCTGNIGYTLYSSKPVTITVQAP

Consider CNTO888 (antibody), for which the binding amounts of hFcγRs (RU) per 1 RU Ab in assay [1] was 0.001 RU per RU; in assay [2], 0.003 RU per RU; in assay [3], 0 RU per RU. Also, the Binding amount of Ab (RU) per 1RU of FcRn-surface worked out at 0.9 RU per RU in assay [4], 0.35 RU per RU in assay [5] and 0 RU per RU in assay [6].

Substance “human CCL2/JE/MCP-1 Antibody (R&D Systems Cat #MAB279)” showed a THP1 chemotaxis [fold change compared to IgG control] in assay [7] of 3.7 fold.
